These are literature values, as cited in article PMC3377446.

One may read the Kd as the free concentration of one partner at which half of the binding sites on the other are occupied at equilibrium, for simple one-to-one binding.

This data set has as its target PDL1 (Homo sapiens) (UniProt Q9NZQ7).
Chain of UniProt Q9NZQ7 (Q9NZQ7 19-238): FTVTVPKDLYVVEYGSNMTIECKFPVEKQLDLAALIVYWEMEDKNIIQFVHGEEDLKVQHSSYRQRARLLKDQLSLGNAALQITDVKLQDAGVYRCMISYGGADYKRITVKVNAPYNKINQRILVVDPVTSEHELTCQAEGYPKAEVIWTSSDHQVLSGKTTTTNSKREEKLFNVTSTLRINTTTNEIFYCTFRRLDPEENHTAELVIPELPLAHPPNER

Regarding CD80 (from UniProt P33681), the Kd was 1.4 µM.
